What was measured:
[1] = test system: J2 IgG WT, PDB:9OJV_1+PDB:9OJV_2; assay: BLI steady state; settings: BLI: 25 mM Tris-HCl pH 7.5, 100-400 mM KCl (per row), 2 mM MgCl2, 25 C, IgG immobilized on Protein A, FP: 25 mM Tris-HCl pH 7.5, 100 mM KCl, 2 mM MgCl2, 21 C
[2] = test system: J2 IgG WT, PDB:9OJV_1+PDB:9OJV_2; assay: FP; settings: BLI: 25 mM Tris-HCl pH 7.5, 100-400 mM KCl (per row), 2 mM MgCl2, 25 C, IgG immobilized on Protein A; FP: 25 mM Tris-HCl pH 7.5, 100 mM KCl, 2 mM MgCl2, 21 C
[3] = test system: J2 IgG HC A30P, PDB:9OJV_1+PDB:9OJV_2; assay: BLI steady state; settings: 100 mM KCl; kinetic Kd 28 ± 14 nM; BLI: 25 mM Tris-HCl pH 7.5, 100-400 mM KCl (per row), 2 mM MgCl2, 25 C, IgG immobilized on Protein A; FP: 25 mM Tris-HCl pH 7.5, 100 mM KCl, 2 mM MgCl2, 21 C
[4] = test system: J2 IgG HC Y50F, PDB:9OJV_1+PDB:9OJV_2; assay: BLI steady state; settings: 100 mM KCl; kinetic Kd 94 ± 49 nM; BLI: 25 mM Tris-HCl pH 7.5, 100-400 mM KCl (per row), 2 mM MgCl2, 25 C, IgG immobilized on Protein A; FP: 25 mM Tris-HCl pH 7.5, 100 mM KCl, 2 mM MgCl2, 21 C
[5] = test system: J2 IgG HC Y52F, PDB:9OJV_1+PDB:9OJV_2; assay: BLI steady state; settings: 100 mM KCl; kinetic Kd 210 ± 20 nM; BLI: 25 mM Tris-HCl pH 7.5, 100-400 mM KCl (per row), 2 mM MgCl2, 25 C, IgG immobilized on Protein A; FP: 25 mM Tris-HCl pH 7.5, 100 mM KCl, 2 mM MgCl2, 21 C
[6] = test system: J2 IgG HC Y54A, PDB:9OJV_1+PDB:9OJV_2; assay: BLI steady state; settings: 100 mM KCl; kinetic Kd 270 ± 10 nM; BLI: 25 mM Tris-HCl pH 7.5, 100-400 mM KCl (per row), 2 mM MgCl2, 25 C, IgG immobilized on Protein A; FP: 25 mM Tris-HCl pH 7.5, 100 mM KCl, 2 mM MgCl2, 21 C
[7] = test system: J2 IgG HC Y54F, PDB:9OJV_1+PDB:9OJV_2; assay: BLI steady state; settings: 100 mM KCl; kinetic Kd 250 ± 40 nM; BLI: 25 mM Tris-HCl pH 7.5, 100-400 mM KCl (per row), 2 mM MgCl2, 25 C, IgG immobilized on Protein A; FP: 25 mM Tris-HCl pH 7.5, 100 mM KCl, 2 mM MgCl2, 21 C
[8] = test system: J2 IgG LC Y31A, PDB:9OJV_1+PDB:9OJV_2; assay: BLI steady state; settings: 100 mM KCl; kinetic Kd 207 ± 21 nM; BLI: 25 mM Tris-HCl pH 7.5, 100-400 mM KCl (per row), 2 mM MgCl2, 25 C, IgG immobilized on Protein A; FP: 25 mM Tris-HCl pH 7.5, 100 mM KCl, 2 mM MgCl2, 21 C
[9] = test system: J2 IgG LC Y31F, PDB:9OJV_1+PDB:9OJV_2; assay: BLI steady state; settings: 100 mM KCl; kinetic Kd 130 ± 20 nM; BLI: 25 mM Tris-HCl pH 7.5, 100-400 mM KCl (per row), 2 mM MgCl2, 25 C, IgG immobilized on Protein A; FP: 25 mM Tris-HCl pH 7.5, 100 mM KCl, 2 mM MgCl2, 21 C
[10] = test system: J2 IgG LC Y38F, PDB:9OJV_1+PDB:9OJV_2; assay: BLI steady state; settings: 100 mM KCl; kinetic Kd 83 ± 14 nM; BLI: 25 mM Tris-HCl pH 7.5, 100-400 mM KCl (per row), 2 mM MgCl2, 25 C, IgG immobilized on Protein A; FP: 25 mM Tris-HCl pH 7.5, 100 mM KCl, 2 mM MgCl2, 21 C
[11] = test system: J2 IgG WT, PDB:9OJV_1+PDB:9OJV_2; assay: FP competition; settings: vs 3'-FAM VA-I RNA; BLI: 25 mM Tris-HCl pH 7.5, 100-400 mM KCl (per row), 2 mM MgCl2, 25 C, IgG immobilized on Protein A; FP: 25 mM Tris-HCl pH 7.5, 100 mM KCl, 2 mM MgCl2, 21 C
[12] = molecular target: T1, J2 IgG heavy chain (HC-TEV-His8);J2 IgG light chain (Mus musculus;Mus musculus, UniProt ; ;, |); assay: BLI; 200 mM KCl; BLI: 25 mM Tris-HCl pH 7.5, 2 mM MgCl2, KCl 100 mM (6-20 bp and mutants), 200 mM (30 bp) or 400 mM (40, 50 bp), 25 C; IgG immobilised on Protein A probes; settings: protein: recombinant;recombinant, tags: His8 (C-term);, chain copies: 2;2
T1 sequence (chain, as listed by the source |, chain 1 of 2): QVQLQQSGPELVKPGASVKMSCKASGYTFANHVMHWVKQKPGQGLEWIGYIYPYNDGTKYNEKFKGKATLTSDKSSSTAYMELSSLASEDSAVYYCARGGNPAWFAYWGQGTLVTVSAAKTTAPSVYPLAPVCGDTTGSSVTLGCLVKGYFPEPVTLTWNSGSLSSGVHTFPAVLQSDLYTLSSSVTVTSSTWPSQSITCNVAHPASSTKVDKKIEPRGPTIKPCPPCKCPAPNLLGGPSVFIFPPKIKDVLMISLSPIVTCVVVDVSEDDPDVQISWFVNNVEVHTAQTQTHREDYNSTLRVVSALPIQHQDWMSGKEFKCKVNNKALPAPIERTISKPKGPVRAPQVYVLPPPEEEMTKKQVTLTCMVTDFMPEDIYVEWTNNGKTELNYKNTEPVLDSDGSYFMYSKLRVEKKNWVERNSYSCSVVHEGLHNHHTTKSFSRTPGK
T1 sequence (chain, as listed by the source |, chain 2 of 2): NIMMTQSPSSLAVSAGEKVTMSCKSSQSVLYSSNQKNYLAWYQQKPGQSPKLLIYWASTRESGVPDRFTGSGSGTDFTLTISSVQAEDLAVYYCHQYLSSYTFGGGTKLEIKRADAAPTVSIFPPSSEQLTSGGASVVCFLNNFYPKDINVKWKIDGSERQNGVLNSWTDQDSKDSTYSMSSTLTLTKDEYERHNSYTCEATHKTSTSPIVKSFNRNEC

[13] = molecular target: T1, J2 IgG heavy chain (HC-TEV-His8);J2 IgG …; assay: BLI; 400 mM KCl; BLI: 25 mM Tris-HCl pH 7.5, 2 mM MgCl2, KCl 100 mM (6-20 bp and mutants), 200 mM (30 bp) or 400 mM (40, 50 bp), 25 C; IgG immobilised on Protein A probes; settings: protein: recombinant;recombinant, tags: His8 (C-term);, chain copies: 2;2
[14] = molecular target: T1, J2 IgG heavy chain (HC-TEV-His8);J2 IgG …; assay: BLI; 100 mM KCl; BLI: 25 mM Tris-HCl pH 7.5, 2 mM MgCl2, KCl 100 mM (6-20 bp and mutants), 200 mM (30 bp) or 400 mM (40, 50 bp), 25 C; IgG immobilised on Protein A probes; settings: protein: recombinant;recombinant; tags: His8 (C-term);; chain copies: 2;2; blunt

## GUUGUAAAGAAGGU / ACCUUCUUUACAAC [14-bp dsRNA]
[1]; 100 mM KCl, kinetic Kd 1400 ± 800 nM
  Kd: 2100 nM

## 3'-FAM Adenovirus VA-I RNA
[2]
  Kd: 32 nM

## GUUGUAAAGAAAUAUAACAGGCUUGUACCA / UGGUACAAGCCUGUUAUAUUUCUUUACAAC [30-bp dsRNA]
[1]; 200 mM KCl, kinetic Kd 37 ± 7 nM
  Kd: 47 nM

## GUUGUAAAGAAAUAUAACAGGCUUGUACCAUUGAUGGAAA / UUUCCAUCAAUGGUACAAGCCUGUUAUAUUUCUUUACAAC [40-bp dsRNA]
[1]; 400 mM KCl, kinetic Kd 33 ± 6 nM
  Kd: 80 nM

## GUUGUAAAGAAAUAUAGGCU / AGCCUAUAUUUCUUUACAAC [20-bp dsRNA]
[3]
  Kd: 120 nM
[4]
  Kd: 430 nM
[5]
  Kd: 220 nM
[6]
  Kd: 300 nM
[7]
  Kd: 710 nM
[8]
  Kd: 940 nM
[9]
  Kd: 360 nM
[10]
  Kd: 150 nM
[1]; 100 mM KCl, kinetic Kd 150 ± 80 nM
  Kd: 120 nM

## GUUGUAAAGAAAUAUAACAGGCUUGUACCAUUGAUGGAAAAGAACAACGU / ACGUUGUUCUUUUCCAUCAAUGGUACAAGCCUGUUAUAUUUCUUUACAAC [50-bp dsRNA]
[11]
  IC50: 17 nM
[1]
  Kd: 22 nM

B1: 30-bp dsRNA 47% GC (dsRNA)
RNA 1: GUUGUCCAGAAGGUCAAUAGCGUACCAAAC
RNA 2: GUUUGGUACGCUAUUGACCUUCUGGACAAC
[12]; blunt
  Kd: 110 ± 20 nM

B2: 30-bp dsRNA 3% GC (dsRNA)
RNA 1: AUUAUAAAUAAUUUCAAUAUUAUAUUAAAU
RNA 2: AUUUAAUAUAAUAUUGAAAUUAUUUAUAAU
[12]
  Kd: 220 ± 90 nM

B3: 50-bp dsRNA (dsRNA)
RNA 1: GUUGUAAAGAAGGUCAAUAUUGUACCAAACUUGAUGGAAAAGAACAACGU
RNA 2: ACGUUGUUCUUUUCCAUCAAGUUUGGUACAAUAUUGACCUUCUUUACAAC
[13]; blunt
  Kd: 22 ± 8 nM

B4: 40-bp AU-dinucleotide dsRNA (dsRNA)
RNA 1: AUAUAUAUAUAUAUAUAUAUAUAUAUAUAUAUAUAUAUAU
RNA 2: AUAUAUAUAUAUAUAUAUAUAUAUAUAUAUAUAUAUAUAU
[13]
  Kd: 91 ± 11 nM

B5: 40-bp dsRNA (dsRNA)
RNA 1: GUUGUAAAGAAGGUCAAUAUUGUACCAAACUUGAUGGAAA
RNA 2: UUUCCAUCAAGUUUGGUACAAUAUUGACCUUCUUUACAAC
[13]; blunt
  Kd: 80 ± 15 nM

B6: 6-bp dsRNA (dsRNA)
RNA 1: GUUGUA
RNA 2: UACAAC
[14]
  binding result: no binding

B7: 14-bp dsRNA (dsRNA)
RNA 1: GUUGUAAAGAAGGU
RNA 2: ACCUUCUUUACAAC
[14]
  Kd: 2100 ± 600 nM

B8: 30-bp dsRNA 17% GC (dsRNA)
RNA 1: GUUGUAAAUAAGUUCAAUAUUAUACUAAAU
RNA 2: AUUUAGUAUAAUAUUGAACUUAUUUACAAC
[12]; blunt
  Kd: 36 ± 22 nM

B9: 30-bp dsRNA 0% GC (dsRNA)
RNA 1: AUUAUAAAUAAUUUAAAUAUUAUAUUAAAU
RNA 2: AUUUAAUAUAAUAUUUAAAUUAUUUAUAAU
[12]
  Kd: 290 ± 60 nM

— paper PMC12816604, “Structural basis of double-stranded RNA recognition by the J2 monoclonal antibody”
